# Measurements taken from patent publication US11278600B2, “Human alpha-galactosidase variants” (Codexis, Inc., priority 2014, dated 2022).
# Columns and labels:
# Type in all cases: biochemical
# [1] = HTP-analysis of supernatants pretreated with base (MUGal hydrolysis); conditions: for Relative Activity of GLA Variants After Challenge at pH 9.7: activity of the variant/activity of Rd3BB (SEQ ID NO: 13)
# Method in brief: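 Supernatants from INVSc1 yeast expressing GLA variants (SD-Ura, 66-84 h, 30° C) were mixed with McIlvaine buffer pH 7.0-8.2 or 200 mM sodium bicarbonate pH 9.1-9.7 and held 1-18 h at 37° C. Residual activity was then measured on MUGal at pH 4.8/4.3, 37° C, 30-180 min, by fluorescence (Ex 355/Em 448 nm).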
# [2] = HTP-analysis of yeast culture supernatants, no challenge (MUGal hydrolysis)
# Method in brief: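 GLA variants were expressed in INVSc1 yeast grown in SD-Ura broth with glucose at 30° C., and culture supernatants were collected after 66-84 h. Supernatant was mixed with McIlvaine buffer pH 4.8 and MUGal (2 mM stock) in 50 mM citrate, 200 mM KCl, pH 4.6, incubated at 37° C. for 30-180 minutes, then quenched with sodium carbonate.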
# [3] = HTP-analysis of supernatants pretreated with acid (MUGal hydrolysis); conditions: challenge at pH 3.7
# Method in brief: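 Fluorescence of MUGal hydrolysis (Ex. 355 nm, Em. 448 nm) is read after sodium carbonate quench. The enzyme source is INVSc1 yeast culture supernatant, first exposed to pH 3.3-4.3 McIlvaine buffer at 37° C. for 1-3 h, then reacted at pH 4.8 for 30-180 minutes.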
# [4] = activity of the variant/activity of Rd4BB (SEQ ID NO: 15)
# [5] = activity of the variant/activity of Rd3BB (SEQ ID NO: 13)
Molecule,"Relative Activity of GLA Variants After Challenge at pH 9.65 ([1]; activity of the variant/activity of Rd4BB (SEQ ID NO: 15), challenge at pH 9.65)","Relative Activity of GLA Variants After No Challenge (NC) [2, 4]","Relative Activity of GLA Variants After Challenge at pH 3.7 [3, 4]",Relative Activity of GLA Variants After Challenge at pH 9.7 [1],"Relative Activity of GLA Variants After No Challenge (NC) [2, 5]","Relative Activity of GLA Variants After Challenge at pH 3.7 [3, 5]"
"390 (protein, Synthetic Polypeptide sequence of Variant No. 390 of mature Human GLA) LDNGLARTPTMGWLHWERFMCNLDCQEEPDSCISEKLFMEMAERMVSEGWKDAGYEYLCIDDCWMAPQRDSEGRLQADPQRFPHGIRQLANYQHSKGLKLGIYADVGNKTCAGFPGSFGYYDIDAQTFADWGVDLLKFDGCYCDSLENLADGYKHMSLALNRTGRSIVYSCEWPLYMWPFQKPNYTEIRQYCNHWRNFADIDDSWKSIKSILDWTSRNQERIVDVAGPGGWNDPDMLVIGNFGLSWDQQVTQMALWAIMAAPLFMSNDLRHISPQAKALLQDKDVIAINQDPLGKQGYQLRKGDNFEVWERPLSGDAWAVAIINRQEIGGPRSYTIPVASLGKGVACNPACFITQLLPVKRQLGFYNWTSRLKSHINPTGTVLLQLENTMQMSLKDLL",− (<0.5 relative activity over Rd4BB (SEQ ID NO: 15)),+ (0.5 to 1.5 relative activity over Rd4BB (SEQ ID NO: 15)),+ (0.5 to 1.5 relative activity over Rd4BB (SEQ ID NO: 15)),,,
"549 (protein, Synthetic Polypeptide sequence of Variant No. 549 of mature Human GLA) LDNGLARTPTMGWLHWERFMCNLDCQEEPDSCISEKLFMEMAERMVSEGWKDAGYEYLCIDDCWMAPQRDSEGRLQADPQRFPHGIRQLANHVHSKGLKLGIYADVGNKTCAGFPGSFGYYDIDAQTFADWGVDLLKFDGCYCDSLENLADGYKHMSLALNRTGRSIVYSCEWPLYMWPFQKPNYTEIRQYCNHWRNFADIDDSWASIKSILDWTSRNQERIVDVAGPGGWNDPDMLVIGNFGLSWDQQVTQMALWAIMAAPLFMSNDLRHISPQAKALLQDKDVIAINQDPLGQQGYQLRKGDNFEVWERPLSGDAWAVAIINRQEIGGPRSYTIPVASLGKGVACNPACFITQLLPVKRQLGFYNWTSRLKSHINPTGTVLLQLENTMQMSLKDLL",,,,++ (++ = >5 to 10 relative activity over Rd3BB (SEQ ID NO: 13)),+ (+ = 1.5 to 5 relative activity over Rd3BB (SEQ ID NO: 13)),++ (++ = >5 to 10 relative activity over Rd3BB (SEQ ID NO: 13))
"551 (protein, Synthetic Polypeptide sequence of Variant No. 551 of mature Human GLA) LDNGLARTPTMGWLHWERFMCNLDCQEEPDSCISEKLFMEMAERMVSEGWKDAGYEYLCIDDCWMAPQRDSEGRLQADPQRFPHGIRQLANHVHSKGLKLGIYADVGNKTCAGFPGSFGYYDIDAQTFADWGVDLLKFDGCYCDSLENLADGYKHMSLALNRTGRSIVYSCEWPLYMWPFQKPNYTEIRQYCNHWRNFADIDDSWASIKSILDWTSRNQERIVDVAGPGGWNDPDMLVIGNFGLSWDQQVTQMALWAIMAAPLFMSNDLRHISPQAKALLQDKDVIAINQDPLGTQGYQLRKGDNFEVWERPLSGDAWAVAIINRQEIGGPRSYTIPVASLGKGVACNPACFITQLLPVKRQLGFYNWTSRLKSHINPTGTVLLQLENTMQMSLKDLL",,,,++ (++ = >5 to 10 relative activity over Rd3BB (SEQ ID NO: 13)),+ (+ = 1.5 to 5 relative activity over Rd3BB (SEQ ID NO: 13)),+ (+ = 1.5 to 5 relative activity over Rd3BB (SEQ ID NO: 13))
"550 (protein, Synthetic Polypeptide sequence of Variant No. 550 of mature Human GLA) LDNGLARTPTMGWLHWERFMCNLDCQEEPDSCISEKLFMEMAERMVSEGWKDAGYEYLCIDDCWMAPQRDSEGRLQADPQRFPHGIRQLANHVHSKGLKLGIYADVGNKTCAGFPGSFGYYDIDAQTFADWGVDLLKFDGCYCDSLENLADGYKHMSLALNRTGRSIVYSCEWPLYMWPFQKPNYTEIRQYCNHWRNFADIDDSWASIKSILDWTSRNQERIVDVAGPGGWNDPDMLVIGNFGLSWDQQVTQMALWAIMAAPLFMSNDLRHISPQAKALLQDKDVIAINQDPLGSQGYQLRKGDNFEVWERPLSGDAWAVAIINRQEIGGPRSYTIPVASLGKGVACNPACFITQLLPVKRQLGFYNWTSRLKSHINPTGTVLLQLENTMQMSLKDLL",,,,++ (++ = >5 to 10 relative activity over Rd3BB (SEQ ID NO: 13)),+ (+ = 1.5 to 5 relative activity over Rd3BB (SEQ ID NO: 13)),+ (+ = 1.5 to 5 relative activity over Rd3BB (SEQ ID NO: 13))
"548 (protein, Synthetic Polypeptide sequence of Variant No. 548 of mature Human GLA) LDNGLARTPTMGWLHWERFMCNLDCQEEPDSCISEKLFMEMAERMVSEGWKDAGYEYLCIDDCWMAPQRDSEGRLQADPQRFPHGIRQLANHVHSKGLKLGIYADVGNKTCAGFPGSFGYYDIDAQTFADWGVDLLKFDGCYCDSLENLADGYKHMSLALNRTGRSIVYSCEWPLYMWPFQKPNYTEIRQYCNHWRNFADIDDSWASIKSILDWTSRNQERIVDVAGPGGWNDPDMLVIGNFGLSWDQQVTQMALWAIMAAPLFMSNDLRHISPQAKALLQDKDVIAINQDPLGNQGYQLRKGDNFEVWERPLSGDAWAVAIINRQEIGGPRSYTIPVASLGKGVACNPACFITQLLPVKRQLGFYNWTSRLKSHINPTGTVLLQLENTMQMSLKDLL",,,,++ (++ = >5 to 10 relative activity over Rd3BB (SEQ ID NO: 13)),+ (+ = 1.5 to 5 relative activity over Rd3BB (SEQ ID NO: 13)),+++ (+++ = >10 relative activity over Rd3BB (SEQ ID NO: 13))
"547 (protein, Synthetic Polypeptide sequence of Variant No. 547 of mature Human GLA) LDNGLARTPTMGWLHWERFMCNLDCQEEPDSCISEKLFMEMAERMVSEGWKDAGYEYLCIDDCWMAPQRDSEGRLQADPQRFPHGIRQLANHVHSKGLKLGIYADVGNKTCAGFPGSFGYYDIDAQTFADWGVDLLKFDGCYCDSLENLADGYKHMSLALNRTGRSIVYSCEWPLYMWPFQKPNYTEIRQYCNHWRNFADIDDSWASIKSILDWTSRNQERIVDVAGPGGWNDPDMLVIGNFGLSWDQQVTQMALWAIMAAPLFMSNDLRHISPQAKALLQDKDVIAINQDPLGLQGYQLRKGDNFEVWERPLSGDAWAVAIINRQEIGGPRSYTIPVASLGKGVACNPACFITQLLPVKRQLGFYNWTSRLKSHINPTGTVLLQLENTMQMSLKDLL",,,,++ (++ = >5 to 10 relative activity over Rd3BB (SEQ ID NO: 13)),+ (+ = 1.5 to 5 relative activity over Rd3BB (SEQ ID NO: 13)),+ (+ = 1.5 to 5 relative activity over Rd3BB (SEQ ID NO: 13))
